One substance from paper PMC9552509 can be followed below.

For the assay, the target named is TACC3 (UniProt Q9Y6A5). The experiment in a line: co-IP with anti-FLAG and anti-TACC3. The settings on record: reference: wild-type stathmin1-FLAG; sites S16.

For “stathmin1 (from UniProt P16949) stathmin1 S16A-FLAG”, the “binding against the reference” value is “lost”.
